From publication PMC8319186, “Mitochondrial adaptor TRAK2 activates and functionally links opposing kinesin and dynein motors” (Nature Communications, 2021)

Legend:
[1] = target: dynein heavy chain (endogenous, COS-7); test: co-immunoprecipitation (Halo antibody IP, western blot quantification); details: extracts from COS-7 cells transfected with Myc-KIF5B and Halo-tagged constructs; mean ± s.d. from three independent experiments; parent: est. 0.21; read off a plot
Myc-KIF5C-Halo = target: T1, Myc-KIF5C-Halo (mouse, UniProt P28738 1-956); test: cell-based or functional assay
T1 sequence (looked up): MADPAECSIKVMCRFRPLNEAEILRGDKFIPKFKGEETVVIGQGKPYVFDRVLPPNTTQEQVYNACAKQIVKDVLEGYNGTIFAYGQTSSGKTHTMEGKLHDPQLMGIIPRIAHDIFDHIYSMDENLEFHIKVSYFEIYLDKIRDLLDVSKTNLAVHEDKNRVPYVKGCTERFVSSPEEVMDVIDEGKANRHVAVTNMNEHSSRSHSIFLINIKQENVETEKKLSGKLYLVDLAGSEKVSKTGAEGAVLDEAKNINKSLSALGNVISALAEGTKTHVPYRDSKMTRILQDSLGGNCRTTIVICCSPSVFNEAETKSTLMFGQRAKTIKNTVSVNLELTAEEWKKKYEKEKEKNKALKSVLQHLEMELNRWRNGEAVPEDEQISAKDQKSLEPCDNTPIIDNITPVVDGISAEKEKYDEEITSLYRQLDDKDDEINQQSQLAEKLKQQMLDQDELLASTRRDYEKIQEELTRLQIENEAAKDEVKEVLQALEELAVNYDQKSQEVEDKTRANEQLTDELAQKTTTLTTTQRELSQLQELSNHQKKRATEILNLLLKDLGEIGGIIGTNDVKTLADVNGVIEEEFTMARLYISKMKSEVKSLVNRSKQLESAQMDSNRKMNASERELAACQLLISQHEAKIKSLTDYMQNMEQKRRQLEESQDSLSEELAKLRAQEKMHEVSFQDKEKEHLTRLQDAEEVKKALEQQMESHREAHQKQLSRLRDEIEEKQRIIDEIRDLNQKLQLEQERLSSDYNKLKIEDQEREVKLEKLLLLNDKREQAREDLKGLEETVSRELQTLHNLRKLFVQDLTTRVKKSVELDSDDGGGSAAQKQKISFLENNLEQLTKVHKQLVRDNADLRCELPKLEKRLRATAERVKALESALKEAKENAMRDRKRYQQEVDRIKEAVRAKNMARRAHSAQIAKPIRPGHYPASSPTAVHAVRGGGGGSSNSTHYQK

Molecule	response [1]	frequency of KIF5C runs along dynamic microtubules (single-molecule TIRF of COS-7 lysate) with against without exogenous HA-TRAK2 (Myc-KIF5C-Halo) [fold]
Halo-TRAK2 (from UniProt O60296) A129V; A130V	0.08	–
Halo-TRAK2 (from UniProt O60296) I132D	0.07	–
HA-TRAK2 (natural protein, UniProt O60296 1-914, looked up) MSQSQNAIFTSPTGEENLMNSNHRDSESITDVCSNEDLPEVELVSLLEEQLPQYRLKVDTLFLYENQDWTQSPHQRQHASDALSPVLAEETFRYMILGTDRVEQMTKTYNDIDMVTHLLAERDRDLELAARIGQALLKRNHVLSEQNESLEEQLGQAFDQVNQLQHELCKKDELLRIVSIASEESETDSSCSTPLRFNESFSLSQGLLQLEMLQEKLKELEEENMALRSKACHIKTETVTYEEKEQQLVSDCVKELRETNAQMSRMTEELSGKSDELIRYQEELSSLLSQIVDLQHKLKEHVIEKEELKLHLQASKDAQRQLTMELHELQDRNMECLGMLHESQEEIKELRSRSGPTAHLYFSQSYGAFTGESLAAEIEGTMRKKLSLDEESSLFKQKAQQKRVFDTVRIANDTRGRSISFPALLPIPGSNRSSVIMTAKPFESGLQQTEDKSLLNQGSSSEEVAGSSQKMGQPGPSGDSDLATALHRLSLRRQNYLSEKQFFAEEWQRKIQVLADQKEGVSGCVTPTESLASLCTTQSEITDLSSASCLRGFMPEKLQIVKPLEGSQTLYHWQQLAQPNLGTILDPRPGVITKGFTQLPGDAIYHISDLEEDEEEGITFQVQQPLEVEEKLSTSKPVTGIFLPPITSAGGPVTVATANPGKCLSCTNSTFTFTTCRILHPSDITQVTPSSGFPSLSCGSSGSSSSNTAVNSPALSYRLSIGESITNRRDSTTTFSSTMSLAKLLQERGISAKVYHSPISENPLQPLPKSLAIPSTPPNSPSHSPCPSPLPFEPRVHLSENFLASRPAETFLQEMYGLRPSRNPPDVGQLKMNLVDRLKRLGIARVVKNPGAQENGRCQEAEIGPQKPDSAVYLNSGSSLLGGLRRNQSLPVIMGSFAAPVCTSSPKMGVLKED	–	> 3
